Experimental findings from patent US20220249561A1 (SHINSHU UNIVERSITY, published 2022) are described below.

Test [1] deals with T1, ALK 001P.
T1 construct: ALK (1-19) is described only as a region comprising a secretory signal, and no cleavage site is stated; Expressed in Expi293 cells and captured on a Protein A chip through its Fc
As to the kind of experiment: SPR, Biacore 8K; ALK 001P captured on Protein A chip, ligand as analyte, 6 concentrations from 20 nM. (In SPR one partner is held on a chip, and binding of the other changes the refractive index at the surface.)

Test [2] concerns the target T2, LTK 001P.
T2 construct: Expressed in Expi293 cells and captured on a Protein A chip through its Fc
The test is described as follows: SPR, Biacore 8K; LTK 001P captured on Protein A chip, ligand as analyte, 6 concentrations from 20 nM.

B1: Ligand 011P (ligand)
chain: DGHHHHHHGSLQDSEVNQEAKPEVKPEVKPETHINLKVSDGSSEIFFKIKKTTPLRRLMEAFAKRQGKEMDSLTFLYDGIEIQADQTPEDLDMEDNDIIEAHREQIGGLEVLFQGPEQRVEIVPRDLRMKDKFLKHLTGPLYFSPKCSKHFHRLYHNTRDCTIPAYYKRCARLLTRLAVSPVCMEDKQ
notes: also called Li 011P
Turning to B1, the binding result in test [1] and in test [2] was “binds” in each case.

B2: Ligand 007P (ligand)
chain: DGHHHHHHGSLQDSEVNQEAKPEVKPEVKPETHINLKVSDGSSEIFFKIKKTTPLRRLMEAFAKRQGKEMDSLTFLYDGIEIQADQTPEDLDMEDNDIIEAHREQIGGLEVLFQGPAAGLGPSPEQRVEIVPRDLRMKDKFLKHLTGPLYFSPKCSKHFHRLYHNTRDCTIPAYYKRCARLLTRLAVSPVCMEDKQ
Turning to B2, the binding result in test [1] and in test [2] was “binds” each time.

B3: Ligand 016P (ligand)
chain: DGHHHHHHGSLQDSEVNQEAKPEVKPEVKPETHINLKVSDGSSEIFFKIKKTTPLRRLMEAFAKRQGKEMDSLTFLYDGIEIQADQTPEDLDMEDNDIIEAHREQIGGLEVLFQGPLRMKDKFLKHLTGPLYFSPKCSKHFHRLYHNTRDCTIPAYYKRCARLLTRLAVSPVCMEDKQ
On to B3, for which the binding result in test [1] and in test [2] was “binds” each time.

B4: Ligand 014P (ligand)
chain: DGHHHHHHGSLQDSEVNQEAKPEVKPEVKPETHINLKVSDGSSEIFFKIKKTTPLRRLMEAFAKRQGKEMDSLTFLYDGIEIQADQTPEDLDMEDNDIIEAHREQIGGLEVLFQGPVPRDLRMKDKFLKHLTGPLYFSPKCSKHFHRLYHNTRDCTIPAYYKRCARLLTRLAVSPVCMEDKQ
For B4, the binding result in test [1] and in test [2] was “binds” throughout.

B5: Ligand 009P (ligand)
chain: DGHHHHHHGSLQDSEVNQEAKPEVKPEVKPETHINLKVSDGSSEIFFKIKKTTPLRRLMEAFAKRQGKEMDSLTFLYDGIEIQADQTPEDLDMEDNDIIEAHREQIGGLEVLFQGPGPSPEQRVEIVPRDLRMKDKFLKHLTGPLYFSPKCSKHFHRLYHNTRDCTIPAYYKRCARLLTRLAVSPVCMEDKQ
Take B5: the binding result in test [1] and in test [2] was “binds” each time.

B6: Ligand 019P (ligand)
chain: DGHHHHHHGSLQDSEVNQEAKPEVKPEVKPETHINLKVSDGSSEIFFKIKKTTPLRRLMEAFAKRQGKEMDSLTFLYDGIEIQADQTPEDLDMEDNDIIEAHREQIGGLEVLFQGPFLKHLTGPLYFSPKCSKHFHRLYHNTRDCTIPAYYKRCARLLTRLAVSPVCMEDKQ
As for B6, the binding result in test [1] and in test [2] was “binds” each time.

B7: Ligand 013P (ligand)
chain: DGHHHHHHGSLQDSEVNQEAKPEVKPEVKPETHINLKVSDGSSEIFFKIKKTTPLRRLMEAFAKRQGKEMDSLTFLYDGIEIQADQTPEDLDMEDNDIIEAHREQIGGLEVLFQGPEIVPRDLRMKDKFLKHLTGPLYFSPKCSKHFHRLYHNTRDCTIPAYYKRCARLLTRLAVSPVCMEDKQ
Take B7: the binding result in test [1] and in test [2] was “binds” throughout.

B8: Ligand 024P (ligand)
chain: DGHHHHHHGSLQDSEVNQEAKPEVKPEVKPETHINLKVSDGSSEIFFKIKKTTPLRRLMEAFAKRQGKEMDSLTFLYDGIEIQADQTPEDLDMEDNDIIEAHREQIGGLEVLFQGPAEAAGLGPSPEQRVEIVPRDLRMKDKFLKHLTGPLYFSPKCSKHFHRLYHNTRDCTIPAYYKRCARLLTRLAVSPVCM
For the molecule B8, the binding result in test [1] and in test [2] was “binds” in each case.

B9: Ligand 008P (ligand)
chain: DGHHHHHHGSLQDSEVNQEAKPEVKPEVKPETHINLKVSDGSSEIFFKIKKTTPLRRLMEAFAKRQGKEMDSLTFLYDGIEIQADQTPEDLDMEDNDIIEAHREQIGGLEVLFQGPGLGPSPEQRVEIVPRDLRMKDKFLKHLTGPLYFSPKCSKHFHRLYHNTRDCTIPAYYKRCARLLTRLAVSPVCMEDKQ
For the molecule B9, the binding result in test [1] and in test [2] was “binds” in each case.

B10: Ligand 018P (ligand)
chain: DGHHHHHHGSLQDSEVNQEAKPEVKPEVKPETHINLKVSDGSSEIFFKIKKTTPLRRLMEAFAKRQGKEMDSLTFLYDGIEIQADQTPEDLDMEDNDIIEAHREQIGGLEVLFQGPDKFLKHLTGPLYFSPKCSKHFHRLYHNTRDCTIPAYYKRCARLLTRLAVSPVCMEDKQ
notes: also called Ligand 18P
Consider B10, for which the binding result in test [1] and in test [2] was “binds” throughout.

B11: Ligand 022P (ligand)
chain: DGHHHHHHGSLQDSEVNQEAKPEVKPEVKPETHINLKVSDGSSEIFFKIKKTTPLRRLMEAFAKRQGKEMDSLTFLYDGIEIQADQTPEDLDMEDNDIIEAHREQIGGLEVLFQGPGPLYFSPKCSKHFHRLYHNTRDCTIPAYYKRCARLLTRLAVSPVCMEDKQ
As to B11, the binding result in test [1] and in test [2] was “binds” throughout.

B12: Ligand 023P (ligand)
chain: DGHHHHHHGSLQDSEVNQEAKPEVKPEVKPETHINLKVSDGSSEIFFKIKKTTPLRRLMEAFAKRQGKEMDSLTFLYDGIEIQADQTPEDLDMEDNDIIEAHREQIGGLEVLFQGPAEAAGLGPSPEQRVEIVPRDLRMKDKFLKHLTGPLYFSPKCSKHFHRLYHNTRDCTIPAYYKRCARLLTRLAVSPVCMED
With B12, the binding result in test [1] and in test [2] was “binds” each time.

B13: Ligand 021P (ligand)
chain: DGHHHHHHGSLQDSEVNQEAKPEVKPEVKPETHINLKVSDGSSEIFFKIKKTTPLRRLMEAFAKRQGKEMDSLTFLYDGIEIQADQTPEDLDMEDNDIIEAHREQIGGLEVLFQGPLTGPLYFSPKCSKHFHRLYHNTRDCTIPAYYKRCARLLTRLAVSPVCMEDKQ
Take B13: the binding result in test [1] and in test [2] was “binds” in each case.

B14: Ligand 010P (ligand)
chain: DGHHHHHHGSLQDSEVNQEAKPEVKPEVKPETHINLKVSDGSSEIFFKIKKTTPLRRLMEAFAKRQGKEMDSLTFLYDGIEIQADQTPEDLDMEDNDIIEAHREQIGGLEVLFQGPSPEQRVEIVPRDLRMKDKFLKHLTGPLYFSPKCSKHFHRLYHNTRDCTIPAYYKRCARLLTRLAVSPVCMEDKQ
For B14, the binding result in test [1] and in test [2] was “binds” each time.

B15: Ligand 012P (ligand)
chain: DGHHHHHHGSLQDSEVNQEAKPEVKPEVKPETHINLKVSDGSSEIFFKIKKTTPLRRLMEAFAKRQGKEMDSLTFLYDGIEIQADQTPEDLDMEDNDIIEAHREQIGGLEVLFQGPRVEIVPRDLRMKDKFLKHLTGPLYFSPKCSKHFHRLYHNTRDCTIPAYYKRCARLLTRLAVSPVCMEDKQ
Turning to B15, the binding result in test [1] and in test [2] was “binds” throughout.

B16: Ligand 005P (ligand)
chain: DGHHHHHHGSLQDSEVNQEAKPEVKPEVKPETHINLKVSDGSSEIFFKIKKTTPLRRLMEAFAKRQGKEMDSLTFLYDGIEIQADQTPEDLDMEDNDIIEAHREQIGGLEVLFQGPALGRAEAAGLGPSPEQRVEIVPRDLRMKDKFLKHLTGPLYFSPKCSKHFHRLYHNTRDCTIPAYYKRCARLLTRLAVSPVCMEDKQ
As to B16, the binding result in test [1] and in test [2] was “binds” each time.

B17: Ligand 003P (ligand)
chain: DGHHHHHHGSLQDSEVNQEAKPEVKPEVKPETHINLKVSDGSSEIFFKIKKTTPLRRLMEAFAKRQGKEMDSLTFLYDGIEIQADQTPEDLDMEDNDIIEAHREQIGGLEVLFQGPAEAAGLGPSPEQRVEIVPRDLRMKDKFLKHLTGPLYFSPKCSKHFHRLYHNTRDCTIPAYYKRCARLLTRLAVSPVCMEDKQ
Turning to B17, the binding result in test [1] and in test [2] was “binds” throughout.

B18: Ligand 017P (ligand)
chain: DGHHHHHHGSLQDSEVNQEAKPEVKPEVKPETHINLKVSDGSSEIFFKIKKTTPLRRLMEAFAKRQGKEMDSLTFLYDGIEIQADQTPEDLDMEDNDIIEAHREQIGGLEVLFQGPMKDKFLKHLTGPLYFSPKCSKHFHRLYHNTRDCTIPAYYKRCARLLTRLAVSPVCMEDKQ
For B18, the binding result in test [1] and in test [2] was “binds” each time.

B19: Ligand 020P (ligand)
chain: DGHHHHHHGSLQDSEVNQEAKPEVKPEVKPETHINLKVSDGSSEIFFKIKKTTPLRRLMEAFAKRQGKEMDSLTFLYDGIEIQADQTPEDLDMEDNDIIEAHREQIGGLEVLFQGPKHLTGPLYFSPKCSKHFHRLYHNTRDCTIPAYYKRCARLLTRLAVSPVCMEDKQ
For the molecule B19, the binding result in test [1] and in test [2] was “binds” each time.

B20: Ligand 006P (ligand)
chain: DGHHHHHHGSLQDSEVNQEAKPEVKPEVKPETHINLKVSDGSSEIFFKIKKTTPLRRLMEAFAKRQGKEMDSLTFLYDGIEIQADQTPEDLDMEDNDIIEAHREQIGGLEVLFQGPGRAEAAGLGPSPEQRVEIVPRDLRMKDKFLKHLTGPLYFSPKCSKHFHRLYHNTRDCTIPAYYKRCARLLTRLAVSPVCMEDKQ
Consider B20, for which the binding result in test [1] and in test [2] was “binds” each time.

B21: Ligand 015P (ligand)
chain: DGHHHHHHGSLQDSEVNQEAKPEVKPEVKPETHINLKVSDGSSEIFFKIKKTTPLRRLMEAFAKRQGKEMDSLTFLYDGIEIQADQTPEDLDMEDNDIIEAHREQIGGLEVLFQGPRDLRMKDKFLKHLTGPLYFSPKCSKHFHRLYHNTRDCTIPAYYKRCARLLTRLAVSPVCMEDKQ
On to B21, for which the binding result in test [1] and in test [2] was “binds” throughout.
